Measurements: article PMC10397247
Like-named read-outs stand apart in the source and are kept apart here. Each block holds one binder with its values, some of them ahead of it.

Legend:
O8-bS = molecular target: T1, O8-bS; assay: two-hybrid library CCNG1;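 further: natural log of median RNA to DNA barcode read ratio; higher means stronger binding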
T1 chain: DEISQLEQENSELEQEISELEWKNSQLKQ

O9-bS = molecular target: T2, O9-bS; assay: two-hybrid library CCNG1;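 further: natural log of median RNA to DNA barcode read ratio; higher means stronger binding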
T2 chain: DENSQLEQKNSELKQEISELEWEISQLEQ

P8-AA = molecular target: T3, P8-AA; assay: two-hybrid library CCmax; conditions: mean of both orientations;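 further: natural log of median RNA to DNA barcode read ratio; higher means stronger binding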
T3 chain: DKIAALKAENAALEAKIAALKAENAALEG

P9-AA = molecular target: T4, P9-AA; assay: two-hybrid library CCmax;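 further: natural log of median RNA to DNA barcode read ratio; higher means stronger binding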
T4 chain: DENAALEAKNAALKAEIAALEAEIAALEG

P7-AA = molecular target: T5, P7-AA; assay: two-hybrid library CCmax; conditions: mean of both orientations
T5 chain: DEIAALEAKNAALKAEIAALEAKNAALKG

zCON9_B = molecular target: T6, zCON9_B; assay: two-hybrid library CCmax
T6 chain: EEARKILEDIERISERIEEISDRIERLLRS

P4-AA = molecular target: T7, P4-AA; assay: two-hybrid library CCmax
T7 chain: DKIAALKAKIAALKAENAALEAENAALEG

zCON9_D = molecular target: T8, zCON9_D; assay: two-hybrid library CCmax; conditions: mean of both orientations
T8 chain: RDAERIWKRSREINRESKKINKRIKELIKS

zCON9_A = molecular target: T9, zCON9_A; assay: two-hybrid library CCmax
T9 chain: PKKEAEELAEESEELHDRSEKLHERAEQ

P3-AA = molecular target: T10, P3-AA; assay: two-hybrid library CCmax
T10 chain: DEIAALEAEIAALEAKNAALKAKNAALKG

P2-AA = molecular target: T11, P2-AA; assay: two-hybrid library CCmax; conditions: mean of both orientations
T11 chain: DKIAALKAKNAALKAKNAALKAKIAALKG

P12-AA = molecular target: T12, P12-AA; assay: two-hybrid library CCmax
T12 chain: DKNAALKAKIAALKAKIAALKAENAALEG

4H3817-bN = molecular target: T13, 4H3817-bN; assay: two-hybrid library CCNG1
T13 chain: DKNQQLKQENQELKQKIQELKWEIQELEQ

4H906-bN = molecular target: T14, 4H906-bN; assay: two-hybrid library CCNG1
T14 chain: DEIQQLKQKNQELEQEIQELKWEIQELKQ

4H591-bN = molecular target: T15, 4H591-bN; assay: two-hybrid library CCNG1
T15 chain: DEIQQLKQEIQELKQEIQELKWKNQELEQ

4H850-bN = molecular target: T16, 4H850-bN; assay: two-hybrid library CCNG1
T16 chain: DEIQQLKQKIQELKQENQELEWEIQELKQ

4H3858-bN = molecular target: T17, 4H3858-bN; assay: two-hybrid library CCNG1
T17 chain: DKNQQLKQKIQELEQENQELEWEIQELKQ

4H3613-bN = molecular target: T18, 4H3613-bN; assay: two-hybrid library CCNG1
T18 chain: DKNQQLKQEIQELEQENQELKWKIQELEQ

4H3974-bN = molecular target: T19, 4H3974-bN; assay: two-hybrid library CCNG1
T19 chain: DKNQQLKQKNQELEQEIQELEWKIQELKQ

4H570-bN = molecular target: T20, 4H570-bN; assay: two-hybrid library CCNG1
T20 chain: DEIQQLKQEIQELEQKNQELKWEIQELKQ

4H626-bN = molecular target: T21, 4H626-bN; assay: two-hybrid library CCNG1
T21 chain: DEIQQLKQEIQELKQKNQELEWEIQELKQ

4H3628-bN = molecular target: T22, 4H3628-bN; assay: two-hybrid library CCNG1
T22 chain: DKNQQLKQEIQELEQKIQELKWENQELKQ

4H3926-bN = molecular target: T23, 4H3926-bN; assay: two-hybrid library CCNG1
T23 chain: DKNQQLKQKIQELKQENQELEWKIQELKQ

4H391-AA = molecular target: T24, 4H391-AA; assay: two-hybrid library CCmax; conditions: mean of both orientations
T24 chain: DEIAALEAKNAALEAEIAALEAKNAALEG

4H428-AA = molecular target: T25, 4H428-AA; assay: two-hybrid library CCmax; conditions: mean of both orientations
T25 chain: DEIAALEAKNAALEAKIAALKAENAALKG

4H656-AA = molecular target: T26, 4H656-AA; assay: two-hybrid library CCmax; conditions: mean of both orientations
T26 chain: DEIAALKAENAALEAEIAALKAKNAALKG

4H3102-AA = molecular target: T27, 4H3102-AA; assay: two-hybrid library CCmax; conditions: mean of both orientations
T27 chain: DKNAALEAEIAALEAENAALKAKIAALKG

4H2948-AA = molecular target: T28, 4H2948-AA; assay: two-hybrid library CCmax; conditions: mean of both orientations
T28 chain: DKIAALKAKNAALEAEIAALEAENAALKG

4H3709-AA = molecular target: T29, 4H3709-AA; assay: two-hybrid library CCmax; conditions: mean of both orientations
T29 chain: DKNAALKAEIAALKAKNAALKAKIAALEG

4H2991-AA = molecular target: T30, 4H2991-AA; assay: two-hybrid library CCmax; conditions: mean of both orientations
T30 chain: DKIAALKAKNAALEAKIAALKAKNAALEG

4H2742-AA = molecular target: T31, 4H2742-AA; assay: two-hybrid library CCmax; conditions: mean of both orientations
T31 chain: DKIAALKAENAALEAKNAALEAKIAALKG

4H2713-AA = molecular target: T32, 4H2713-AA; assay: two-hybrid library CCmax
T32 chain: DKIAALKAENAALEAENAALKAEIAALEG

4H3939-AA = molecular target: T33, 4H3939-AA; assay: two-hybrid library CCmax; conditions: mean of both orientations
T33 chain: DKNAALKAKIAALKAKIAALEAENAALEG

4H3666-AA = molecular target: T34, 4H3666-AA; assay: two-hybrid library CCmax; conditions: mean of both orientations
T34 chain: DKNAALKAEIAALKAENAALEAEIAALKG

4H3446-AA = molecular target: T35, 4H3446-AA; assay: two-hybrid library CCmax; conditions: mean of both orientations
T35 chain: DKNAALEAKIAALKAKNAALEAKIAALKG

4H971-AA = molecular target: T36, 4H971-AA; assay: two-hybrid library CCmax; conditions: mean of both orientations
T36 chain: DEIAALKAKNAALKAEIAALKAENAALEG

4H3029-AA = molecular target: T37, 4H3029-AA; assay: two-hybrid library CCmax; conditions: mean of both orientations
T37 chain: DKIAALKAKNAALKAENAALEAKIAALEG

4H497-AA = molecular target: T38, 4H497-AA; assay: two-hybrid library CCmax; conditions: mean of both orientations
T38 chain: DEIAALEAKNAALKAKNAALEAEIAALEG

4H3121-AA = molecular target: T39, 4H3121-AA; assay: two-hybrid library CCmax; conditions: mean of both orientations
T39 chain: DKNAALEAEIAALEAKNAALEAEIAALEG

4H3591-AA = molecular target: T40, 4H3591-AA; assay: two-hybrid library CCmax; conditions: mean of both orientations
T40 chain: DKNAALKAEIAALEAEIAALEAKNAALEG

4H478-AA = molecular target: T41, 4H478-AA; assay: two-hybrid library CCmax; conditions: mean of both orientations
T41 chain: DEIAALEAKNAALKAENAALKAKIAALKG

4H3417-AA = molecular target: T42, 4H3417-AA; assay: two-hybrid library CCmax; conditions: mean of both orientations
T42 chain: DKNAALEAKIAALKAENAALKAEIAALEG

4H675-AA = molecular target: T43, 4H675-AA; assay: two-hybrid library CCmax; conditions: mean of both orientations
T43 chain: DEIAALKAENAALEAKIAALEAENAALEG

4H3628-AA = molecular target: T44, 4H3628-AA; assay: two-hybrid library CCmax; conditions: mean of both orientations
T44 chain: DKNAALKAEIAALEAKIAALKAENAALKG

4H3920-AA = molecular target: T45, 4H3920-AA; assay: two-hybrid library CCmax; conditions: mean of both orientations
T45 chain: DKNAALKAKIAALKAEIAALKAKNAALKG

4H3066-AA = molecular target: T46, 4H3066-AA; assay: two-hybrid library CCmax; conditions: mean of both orientations
T46 chain: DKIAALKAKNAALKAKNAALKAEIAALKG

interaction score (O8-bS): -2.12
interaction score (O9-bS): -0.376
Binder: DEISQLEQENSELEQEISELEWKNSQLKQ [O8-bS]

interaction score (P8-AA): -1.82
interaction score (P9-AA; mean of both orientations): -1.18
interaction score (P7-AA): -1.41
interaction score (zCON9_B; mean of both orientations): -1.1
interaction score (P4-AA): -2.32
interaction score (zCON9_D): -3.43
interaction score (zCON9_A): -1.68
Binder: DKIAALKAKIAALKAENAALEAENAALEG [P4-AA]

interaction score (P9-AA): -1.97
interaction score (zCON9_B): -1.59
interaction score (zCON9_D): -1.94
interaction score (zCON9_A): -1.13
Binder: DENAALEAKNAALKAEIAALEAEIAALEG [P9-AA]

interaction score (P8-AA): -1.95
interaction score (P9-AA; mean of both orientations): 0.219
interaction score (P7-AA): -1.45
interaction score (zCON9_B; mean of both orientations): 0.333
interaction score (P3-AA; mean of both orientations): 1.42
interaction score (P4-AA; mean of both orientations): -1.68
interaction score (P2-AA): -1.74
interaction score (zCON9_D): -2.06
interaction score (P12-AA): -1.64
interaction score (zCON9_A): -1.73
Binder: DKNAALKAKIAALKAKIAALKAENAALEG [P12-AA]

interaction score (4H3817-bN): -0.783
interaction score (4H906-bN): -1.78
interaction score (4H591-bN): -0.893
interaction score (4H850-bN): -0.0632
interaction score (4H3858-bN): -0.655
interaction score (4H3613-bN): -0.839
interaction score (4H3974-bN): -1.53
interaction score (4H570-bN): -0.737
interaction score (4H626-bN): -1.98
interaction score (4H3628-bN): -1.69
interaction score (4H3926-bN): 0.45
Binder: DKNQQLKQEIQELEQENQELKWKIQELEQ [4H3613-bN]

interaction score (P8-AA): -0.983
interaction score (P9-AA; mean of both orientations): -1.38
interaction score (P7-AA): -1.27
interaction score (zCON9_B; mean of both orientations): -1.33
interaction score (P3-AA): -1.46
interaction score (P4-AA; mean of both orientations): 2.28
interaction score (zCON9_D): -2.08
interaction score (zCON9_A): -1.78
Binder: DEIAALEAEIAALEAKNAALKAKNAALKG [P3-AA]

interaction score (4H391-AA): -1.91
interaction score (4H428-AA): -1.87
interaction score (4H656-AA): -1.66
interaction score (4H3102-AA): -0.638
interaction score (4H2948-AA): -1.84
interaction score (4H3709-AA): -1.95
interaction score (4H2991-AA): -1.79
interaction score (4H2742-AA): -0.508
interaction score (4H2713-AA): 0.691
interaction score (4H3939-AA): -1.59
interaction score (4H3666-AA): -1.39
interaction score (4H3446-AA): -1.15
interaction score (4H971-AA): -1.57
interaction score (4H3029-AA): 1.75
interaction score (4H497-AA): 0.0354
interaction score (4H3121-AA): -1.64
interaction score (4H3591-AA): -1.25
interaction score (4H478-AA): 2.27
interaction score (4H3417-AA): -1.19
interaction score (4H675-AA): -1.83
interaction score (4H3628-AA): -1.22
interaction score (4H3920-AA): -1.61
interaction score (4H3066-AA): 1.76
Binder: DKIAALKAENAALEAENAALKAEIAALEG [4H2713-AA]
